Data on nine molecules can be found in article PMC9674830 (2022).

Positions of bridges follow the written chain, without caps; N, C: chain ends. Non-standard residues stand in square brackets, D forms with d. No end group written: not given here. pentenylalanine = pentenylalanine, unnatural amino acid di-substituted at Cα, crosslinked by ring-closing metathesis

B1: AR-WHTLF peptide (peptide)
chain: SAAASSSWHTLFTAEEGQLYG
B2: peptide γ (designed binder)
chain: KKPGASLSWLQLFQEEQAAQAAKK
B3: peptide γ_(Stpl) (peptide)
chain: KKPGASASW[pentenylalanine]QLF[pentenylalanine]EEQAAQAAKK
modifications: staple 10-14
B4: peptide (P3-7)2 (peptide)
chain: KKPGASLAALQALQALQAAQAAKKY
B5: peptide δ_(ctrl) (peptide)
chain: KKPGASAAAAQEAQLAQLAQELQAAQAAKKY
B6: peptide δ_(Stpl) (peptide)
chain: KKPGASAAAAQE[pentenylalanine]QLA[pentenylalanine]LAQELQAAQAAKKY
modifications: staple 13-17
B7: peptide (P3-7)3 (peptide)
chain: KKPGASLAALQALQALQALQALQAAQAAKKY
B8: C-terminal domain of subunit 1 of the general transcription regulator TFIIF (RAP74-CTD) (domain or fragment)
chain: GDVQVTEDAVRRYLTRKPMTTKDLLKKFQTKKTGLSSEQTVNVLAQILKRLNPERKMINDKMHFSLKE
B9: peptide δ (designed binder)
chain: KKPGASLAALQELQLLQLLQELQAAQAAKKY

For orientation: Kd means the constant that tells how readily two partners part at equilibrium. Low readings indicate tighter binding, high ones weaker binding.

The first assay deals with B8. Kind of assay: NMR.
As to B1, the Kd was > 1000 µM.
B2 registered a Kd of 626 µM.
As for B3, the Kd turned out to be 202 µM.
Same read-out and setting: with B4 the figure was > 1000 µM; with B5, > 1000 µM; with B6, > 1000 µM.
Take B7: the Kd is > 1000 µM.

The next assay deals with γCtrl. Kind of assay: NMR.
With B8, the Kd is > 1000 µM.

Another assay concerns the target B8. Briefly: ITC.
B9 displayed a Kd of 256 µM.
